Laboratory results from article PMC3791872, “Ciprofloxacin is an inhibitor of the Mcm2-7 replicative helicase”.

Tests used:
Assay in all cases: double filter binding; 1 mM ciprofloxacin (modest effect); Double filter binding, 150 nM helicase hexamer, 4 nM ssDNA, 20 min inhibitor preincubation at 37 C; binding buffer not stated in the material (helicase buffer:)
[1] = target: SV40 large T antigen (TAg) (SV40, UniProt P03070 1-708); conditions: chain copies: 6; label: 5'-32P; single strand
Mcm467 = Mcm467 (UniProt P30665;P53091;P38132 1-933;1-1017;1-845); conditions: chain copies: 2;2;2; label: 5'-32P; single strand
Mcm2-7 = Mcm2-7 (UniProt P29469;P24279;P30665;P29496;P53091;P38132 1-868;1-971;1-933;1-775;1-1017;1-845); conditions: copies: 1;1;1;1;1;1; label: 5'-32P; single strand

Measured: binding result

Sequence of SV40 large T antigen (TAg) (P03070 whole entry): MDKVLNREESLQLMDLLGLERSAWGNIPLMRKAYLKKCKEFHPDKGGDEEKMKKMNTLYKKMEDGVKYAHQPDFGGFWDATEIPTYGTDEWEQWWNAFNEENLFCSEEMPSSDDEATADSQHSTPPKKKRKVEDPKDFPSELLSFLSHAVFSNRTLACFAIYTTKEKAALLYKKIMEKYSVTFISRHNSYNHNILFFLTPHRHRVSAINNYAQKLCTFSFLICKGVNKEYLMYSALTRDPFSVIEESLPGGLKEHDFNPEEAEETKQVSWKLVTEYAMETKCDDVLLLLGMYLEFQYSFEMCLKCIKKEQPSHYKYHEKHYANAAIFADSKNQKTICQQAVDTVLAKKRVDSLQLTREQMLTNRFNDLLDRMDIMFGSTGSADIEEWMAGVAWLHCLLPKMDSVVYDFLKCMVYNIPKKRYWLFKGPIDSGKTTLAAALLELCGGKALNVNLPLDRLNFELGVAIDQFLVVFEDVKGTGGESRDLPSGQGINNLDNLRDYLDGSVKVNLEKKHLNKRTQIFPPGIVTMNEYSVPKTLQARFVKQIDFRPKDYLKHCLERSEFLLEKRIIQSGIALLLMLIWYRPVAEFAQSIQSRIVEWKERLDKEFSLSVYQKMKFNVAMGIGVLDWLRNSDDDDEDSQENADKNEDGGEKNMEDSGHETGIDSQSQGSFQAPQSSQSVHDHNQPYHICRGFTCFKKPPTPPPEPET
Sequence of Mcm467 (P30665 whole entry, chain 1 of 3): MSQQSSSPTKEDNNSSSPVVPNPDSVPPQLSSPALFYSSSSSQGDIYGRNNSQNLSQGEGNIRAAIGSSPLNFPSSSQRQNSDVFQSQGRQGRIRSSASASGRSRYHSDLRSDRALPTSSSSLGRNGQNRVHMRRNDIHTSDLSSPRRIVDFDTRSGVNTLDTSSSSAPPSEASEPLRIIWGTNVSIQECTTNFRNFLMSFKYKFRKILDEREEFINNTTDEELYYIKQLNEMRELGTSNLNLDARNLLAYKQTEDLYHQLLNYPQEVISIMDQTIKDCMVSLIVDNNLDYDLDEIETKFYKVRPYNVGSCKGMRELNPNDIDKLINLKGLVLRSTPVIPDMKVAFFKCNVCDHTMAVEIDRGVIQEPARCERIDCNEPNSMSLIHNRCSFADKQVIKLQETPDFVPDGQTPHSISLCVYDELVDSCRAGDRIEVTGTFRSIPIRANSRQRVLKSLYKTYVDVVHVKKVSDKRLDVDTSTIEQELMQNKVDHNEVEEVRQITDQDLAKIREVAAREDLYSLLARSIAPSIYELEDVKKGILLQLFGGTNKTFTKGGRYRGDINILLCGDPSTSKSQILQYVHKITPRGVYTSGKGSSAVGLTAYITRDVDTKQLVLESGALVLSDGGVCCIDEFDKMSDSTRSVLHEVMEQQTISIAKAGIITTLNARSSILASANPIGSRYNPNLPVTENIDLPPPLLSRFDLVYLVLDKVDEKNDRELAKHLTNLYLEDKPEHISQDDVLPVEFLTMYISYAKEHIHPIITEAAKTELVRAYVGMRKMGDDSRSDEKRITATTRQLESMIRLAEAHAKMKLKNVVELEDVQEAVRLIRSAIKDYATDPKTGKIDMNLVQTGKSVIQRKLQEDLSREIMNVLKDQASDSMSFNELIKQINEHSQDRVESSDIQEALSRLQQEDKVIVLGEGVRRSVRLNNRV
Sequence of Mcm467 (P53091 whole entry, chain 2 of 3): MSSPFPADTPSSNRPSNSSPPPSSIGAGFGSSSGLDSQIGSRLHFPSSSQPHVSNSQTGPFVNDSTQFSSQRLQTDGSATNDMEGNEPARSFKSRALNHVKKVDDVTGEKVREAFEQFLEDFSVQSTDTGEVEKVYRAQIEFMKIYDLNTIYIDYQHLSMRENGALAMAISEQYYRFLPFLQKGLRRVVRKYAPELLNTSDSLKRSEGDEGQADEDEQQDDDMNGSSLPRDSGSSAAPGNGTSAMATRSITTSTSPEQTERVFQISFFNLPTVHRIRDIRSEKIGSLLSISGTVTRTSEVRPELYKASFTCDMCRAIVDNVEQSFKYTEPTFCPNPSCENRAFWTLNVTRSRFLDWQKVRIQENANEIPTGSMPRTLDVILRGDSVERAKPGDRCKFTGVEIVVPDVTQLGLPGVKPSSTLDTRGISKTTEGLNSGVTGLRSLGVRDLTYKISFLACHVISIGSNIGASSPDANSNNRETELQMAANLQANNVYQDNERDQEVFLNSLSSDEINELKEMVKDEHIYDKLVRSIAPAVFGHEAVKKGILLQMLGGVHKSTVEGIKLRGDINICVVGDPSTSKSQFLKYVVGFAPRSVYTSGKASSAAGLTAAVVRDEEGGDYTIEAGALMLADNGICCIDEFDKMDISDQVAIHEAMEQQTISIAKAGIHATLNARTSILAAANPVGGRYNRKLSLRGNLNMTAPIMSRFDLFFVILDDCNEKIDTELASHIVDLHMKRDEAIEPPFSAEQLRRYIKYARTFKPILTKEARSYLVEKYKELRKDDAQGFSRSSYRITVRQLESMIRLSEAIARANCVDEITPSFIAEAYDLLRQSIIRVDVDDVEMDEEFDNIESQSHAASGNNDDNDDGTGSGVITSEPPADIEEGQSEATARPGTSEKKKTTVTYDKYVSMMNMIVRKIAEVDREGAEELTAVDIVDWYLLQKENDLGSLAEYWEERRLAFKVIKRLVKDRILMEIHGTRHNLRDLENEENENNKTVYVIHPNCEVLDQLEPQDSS
Sequence of Mcm467 (P38132 whole entry, chain 3 of 3): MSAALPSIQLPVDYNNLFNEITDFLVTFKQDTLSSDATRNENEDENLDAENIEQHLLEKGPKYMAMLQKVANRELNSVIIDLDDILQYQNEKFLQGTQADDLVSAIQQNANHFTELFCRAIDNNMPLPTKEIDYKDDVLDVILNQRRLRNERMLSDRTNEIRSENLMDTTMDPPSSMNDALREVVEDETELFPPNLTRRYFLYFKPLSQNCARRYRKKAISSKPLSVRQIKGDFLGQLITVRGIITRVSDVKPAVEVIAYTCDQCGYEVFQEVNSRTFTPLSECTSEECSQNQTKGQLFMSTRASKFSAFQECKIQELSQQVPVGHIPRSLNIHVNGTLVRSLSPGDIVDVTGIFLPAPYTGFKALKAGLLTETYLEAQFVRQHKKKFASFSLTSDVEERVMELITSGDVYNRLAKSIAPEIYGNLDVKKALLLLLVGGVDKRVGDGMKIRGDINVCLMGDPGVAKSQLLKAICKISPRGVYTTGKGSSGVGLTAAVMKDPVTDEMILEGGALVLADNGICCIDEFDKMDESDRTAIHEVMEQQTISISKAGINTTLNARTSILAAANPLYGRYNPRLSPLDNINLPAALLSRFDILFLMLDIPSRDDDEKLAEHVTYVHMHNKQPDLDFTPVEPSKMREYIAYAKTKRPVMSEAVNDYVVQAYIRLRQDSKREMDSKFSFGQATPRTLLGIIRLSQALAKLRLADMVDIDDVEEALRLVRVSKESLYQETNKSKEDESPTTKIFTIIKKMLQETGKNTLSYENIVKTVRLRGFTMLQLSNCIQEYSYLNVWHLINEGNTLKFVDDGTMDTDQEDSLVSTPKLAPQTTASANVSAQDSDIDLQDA

TGTCTAATCCCGAAAGGCCCTGCCACTGAAATCAACACCTAAAGCATTGA (ssDNA) [oligo 826]
binds: all assays above
